According to publication PMC10074858:

B1: Fluorescently labeled ACT-101 (Alexa Fluor 647) (ligand)
chain: RTLHRNEYGIASILDSYQCTAEISLADLATIFFAQFVQEATYKEVSKMVKDALTAIEKPTGDEQSSGCLENQLPAFLEELCHEKEILEKYGHSDCCSQSEEGRHNCFLAHKKPTPASIPLFQVPEPVTSCEAYEEDRETFMNKFIYEIARRHPFLYAPTILLWAARYDKIIPSCCKAENAVECFQTKAATVTKELRESSLLNQHACAVMKNFGTRTFQAITVTKLSQKFTKVQFTEIQKLVLDVAHVHEHCCRGDVLDCLQDGEKIMSYICSQQDTLSNKITECCKLTTLERGQCIIHAENDEKPEGLSPNLNRFLGDRDFNQFSSGEKNIFLASFVHEYSRRHPQLAVSVILRVAKGYQELLEKCFQTENPLECQDKGEEELQKYIQESQALAKRSCGLFQKLGEYYLQNAFLVAYTKKAPQLTSSELMAITRKMAATAATCCQLSEDKLLACGEGAADIIIGHLCIRHEMTPVNPGVGQCCTSSYANRRPCFSSLVVDETYVPPAFSDDKFIFHKDLCQAQGVALQTMKQEFLINLVKQKPQITEEQLEAVIADFSGLLEKCCQGQEQEVCFAEEGQKLISKTRAALGV
modifications: Alexa Fluor 647 label (protein labeling kit); sites not stated
B2: Fluorescently labeled ACT-101 (Alexa Fluor 488) (ligand)
chain: B1 chain
modifications: Alexa Fluor 488 label (microscale protein labeling kit); sites not stated

Experiments:
[1] = molecular target: alpha-fetoprotein receptor (human (endogenous in tumor cell lines)); experiment: plate-reader fluorescence of labeled protein bound to and internalized by cells; 0.5 µM F-ACT-101 (Alexa Fluor 647) with tumor cells at 37 °C for 0.5, 2 and 5 h, stopped on ice, cells washed, sonicated with DMSO, fluorescence read; background subtracted; binding/internalization as ng per million cells; n = 3
[2] = molecular target: alpha-fetoprotein receptor (human (endogenous in tumor cell lines)); experiment: flow cytometry on cells; COLO-205 or U937 cells, F-ACT-101 (Alexa Fluor 488) at 1, 3, 10, 30 and 100 µg/mL in cold PBS for 1 h on ice; percent of cells positive

Row | Binder | ng F-ACT-101 per million cells (COLO-205, 0.5 h) (ng/million cells) [1] | ng F-ACT-101 per million cells (COLO-205, 2 h) (ng/million cells) [1] | ng F-ACT-101 per million cells (COLO-205, 5 h) (ng/million cells) [1] | ng F-ACT-101 per million cells (H522, 0.5 h) (ng/million cells) [1] | ng F-ACT-101 per million cells (H522, 2 h) (ng/million cells) [1] | ng F-ACT-101 per million cells (H522, 5 h) (ng/million cells) [1] | ng F-ACT-101 per million cells (MCF-7, 0.5 h) (ng/million cells) [1] | ng F-ACT-101 per million cells (MCF-7, 2 h) (ng/million cells) [1] | ng F-ACT-101 per million cells (MCF-7, 5 h) (ng/million cells) [1] | ng F-ACT-101 per million cells (OVCAR-3, 0.5 h) (ng/million cells) [1] | ng F-ACT-101 per million cells (OVCAR-3, 2 h) (ng/million cells) [1] | ng F-ACT-101 per million cells (OVCAR-3, 5 h) (ng/million cells) [1] | ng F-ACT-101 per million cells (SKOV-3, 0.5 h) (ng/million cells) [1] | ng F-ACT-101 per million cells (SKOV-3, 2 h) (ng/million cells) [1] | ng F-ACT-101 per million cells (SKOV-3, 5 h) (ng/million cells) [1] | ng F-ACT-101 per million cells (U937, 0.5 h) (ng/million cells) [1] | ng F-ACT-101 per million cells (U937, 2 h) (ng/million cells) [1] | ng F-ACT-101 per million cells (U937, 5 h) (ng/million cells) [1] | percent of cells positive for binding (COLO-205, at 100 µg/mL) [2] | percent of cells positive for binding (U937, at 100 µg/mL) [2]
1 | B1 | 6.9 | 33.6 | 75 | 55.6 | 27.1 | 71.3 | 51 | 53.6 | 126 | 67 | 21.2 | 71 | 31.3 | 9.2 | 16 | 29.5 | 67.1 | 84.3 | – | –
2 | B2 | – | – | – | – | – | – | – | – | – | – | – | – | – | – | – | – | – | – | 90% | 90%
